From publication PMC10022797, “Role of Nesprin-2 and RanBP2 in BICD2-associated brain developmental disorders” (PLOS Genetics, 2023)
One block for each molecule: values may come before it.

B1: GST-tagged RanBP2 fragment (BICD2 binding domain, aa 2148–2240), on glutathione Sepharose (domain or fragment, human, UniProt P49792 2148-2240, looked up)
chain: DIPLQTPHKLVDTGRAAKLIQRAEEMKSGLKDFKTFLTNDQTKVTEEENKGSGTGAAGASDTTIKPNPENTGPTLEWDNYDLREDALDDSVSS
notes: GST fusion from the pGEX-6P-1 vector; also called GST-RanBP2; BBD; source: E. coli, purified on glutathione Sepharose, not eluted

Experiments:
[1] = biological target: GST-tagged Nesprin-2 fragment (N2G SR 52–56), on glutathione Sepharose (mouse) (UniProt Q6ZWQ0); test: pull-down; GST-RanBP2 or GST-Nesprin-2 held on glutathione Sepharose (not eluted), purified His6-tagged BICD2 fragment added to the column, washed, eluted; Coomassie-stained SDS-PAGE, bands quantified (3 sets)
[2] = biological target: GST-His6-BICD2-CT (aa 630–820) E770G (mouse) (UniProt Q921C5); test: pull-down; GST-His6-BICD2-CT WT or mutant on glutathione magnetic beads, incubated 3 hrs at 4°C with untransfected or GFP-Nesprin-2 expressing HeLaM lysate (RIPA buffer); immunoblot with anti-RanBP2, anti-GFP and anti-GST, signal ratio normalised to wildtype
[3] = biological target: Purified Nesprin-2 fragment (N2G SR 52–56), used in size exclusion chromatography (mouse) (UniProt Q6ZWQ0); test: SEC; pairwise mixtures, Nesprin-2 or RanBP2 with BICD2-CC3 WT or mutant at 1:2; 1.3 mg Nesprin-2, 0.2 mg RanBP2, 0.4 mg BICD2-CC3; Superdex 200 Increase 10/300 GL; 20 mM HEPES pH 7.5, 150 mM NaCl, 0.5 mM TCEP; bands quantified (Fig 6C-6G, S3, S6)
[4] = biological target: T1, BICD2 aa 630–800 (mouse, UniProt Q921C5-1 630-800); test: pull-down; GST-RanBP2 or GST-Nesprin-2 held on glutathione Sepharose (not eluted), purified His6-tagged BICD2 fragment added to the column, washed, eluted; Coomassie-stained SDS-PAGE, bands quantified (3 sets); conditions: both partners purified
T1 construct: Bicd2 (Bicaudal D2), mouse, aa 630–800, contains the entire predicted CC3 domain; cloned into pet28a (NdeI, XhoI); also called Ms BICD2 aa 630–800
T1 sequence (looked up): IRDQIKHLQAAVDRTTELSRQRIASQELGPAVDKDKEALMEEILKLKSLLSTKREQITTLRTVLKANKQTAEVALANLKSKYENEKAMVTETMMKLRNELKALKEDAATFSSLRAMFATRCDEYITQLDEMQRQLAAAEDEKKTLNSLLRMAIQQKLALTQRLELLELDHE

[5] = biological target: GFP tagged Nesprin-2 fragment (GFP-N2G SR), Q6ZWQ0; test: GST pull-down with immunoblot quantification; conditions: chain shown with the change; GFP-Nesprin-2 expressing HeLaM cell lysate; n = 3; parent: est. 1.0; read off a plot
[6] = biological target: B1; test: pull-down; GST-RanBP2 or GST-Nesprin-2 held on glutathione Sepharose (not eluted), purified His6-tagged BICD2 fragment added to the column, washed, eluted; Coomassie-stained SDS-PAGE, bands quantified (3 sets); conditions: both partners purified
[7] = biological target: T2, RanBP2 fragment (aa 2148–2240), GST cleaved (human, UniProt P49792 2148-2240); test: SEC; competition: Nesprin-2, RanBP2 and BICD2-CC3 WT or mutant mixed at 1:1:2 molar ratio; Superdex 200 Increase 10/300 GL; 20 mM HEPES pH 7.5, 150 mM NaCl, 0.5 mM TCEP (Fig 6L, 6M, S3I, S3J); conditions: both partners purified
T2 construct: expressed as GST fusion from the pGEX-6P-1 vector; also called Hs RanBP2 (aa 2148–2240); BBD

[8] = biological target: T2, RanBP2 fragment (aa 2148–2240), GST …; test: SEC; pairwise mixtures, equimolar; Superdex 200 Increase 10/300 GL; 20 mM HEPES pH 7.5, 150 mM NaCl, 0.5 mM TCEP, 1 mM MgCl2; 1.3 mg Nesprin-2, 0.2 mg RanBP2, 0.2 mg BICD2-CC3; fractions on SDS-PAGE (Fig 2D, 2E); conditions: both partners purified

Molecule: BICD2 aa 750–800 (from UniProt Q921C5-1 750-800) (domain or fragment)
amount of bound molecules compared to the longer fragments (aa 630–800 and 711–800) [1]: 73%

Molecule: GFP tagged Nesprin-2 fragment (GFP-N2G SR) (from UniProt Q6ZWQ0 1-6874) (domain or fragment)
fold change in GFP-Nesprin-2 binding against wildtype BICD2-CT [2]: 6 fold

Molecule: BICD2-CC3 (aa 711–800), His6-tagged (from UniProt Q921C5-1 711-800) (domain or fragment)
percent of BICD2-CC3 that co-elutes with Nesprin-2 [3]: 23%

Molecule: BICD2-CC3 (aa 711–800) F739I/R743C (from UniProt Q921C5-1 711-800) (domain or fragment)
percent of BICD2-CC3 that co-elutes with Nesprin-2 [3]: 94%

Molecule: B1
binding result [4]: binds

Results, then the molecule that gave them:

ratio to parent [5]: 0.53
B2: GST-His6-BICD2-CT (aa 630–820) wildtype, Q921C5-1 T699M (protein)
chain: IRDQIKHLQAAVDRTTELSRQRIASQELGPAVDKDKEALMEEILKLKSLLSTKREQITTLRTVLKANKQMAEVALANLKSKYENEKAMVTETMMKLRNELKALKEDAATFSSLRAMFATRCDEYITQLDEMQRQLAAAEDEKKTLNSLLRMAIQQKLALTQRLELLELDHEQTRRGRSKAASKAKPASPSL

ratio to parent [5]: 2.7
B3: GST-His6-BICD2-CT (aa 630–820) wildtype, Q921C5-1 L679R (protein)
chain: IRDQIKHLQAAVDRTTELSRQRIASQELGPAVDKDKEALMEEILKLKSLRSTKREQITTLRTVLKANKQTAEVALANLKSKYENEKAMVTETMMKLRNELKALKEDAATFSSLRAMFATRCDEYITQLDEMQRQLAAAEDEKKTLNSLLRMAIQQKLALTQRLELLELDHEQTRRGRSKAASKAKPASPSL

binding result [6]: binds
binding result [7]: binds
B4: BICD2-CC3 (aa 711–800), His6-tagged (domain or fragment, mouse, UniProt Q921C5-1 711-800, looked up)
chain: YENEKAMVTETMMKLRNELKALKEDAATFSSLRAMFATRCDEYITQLDEMQRQLAAAEDEKKTLNSLLRMAIQQKLALTQRLELLELDHE
notes: also called Ms BICD2-CC3; source: E. coli LOBSTR-BL21(DE3)-RIL, purified (Ni-NTA)

binding result [8]: binds
B5: BICD2-CC3 (residues 711–800), His6 tag removed (domain or fragment, mouse, UniProt Q921C5-1 711-800, looked up)
chain: YENEKAMVTETMMKLRNELKALKEDAATFSSLRAMFATRCDEYITQLDEMQRQLAAAEDEKKTLNSLLRMAIQQKLALTQRLELLELDHE
